{
  "source": "patent US20040102388",
  "molecules": {"B1": {"name": "FVII-RKRRKR (protein)", "chain": "ANAFLEELRPGSLERECKEEQCSFEEAREIFKDAERTKLFWISYSDGDQCASSPCQNGGSCKDQLQSYICFCLPAFEGRNCETHKDDQLICVNENGGCEQYCSDHTGTKRSCRCHEGYSLLADGVSCTPTVEYPCGKIPILEKRNASKPQGRRKRRKRRKRIVGGKVCPKGECPWQVLLLVNGAQLCGGTLINTIWVVSAAHCFDKIKNWRNLIAVLGEHDLSEHDGDEQSRRVAQVIIPSTYVPGTTNHDIALLRLHQPVVLTDHVVPLCLPERTFSERTLAFVRFSLVSGWGQLLDRGATALELMVLNVPRLMTQDCLQQSRKVGDSPNITEYMFCAGYSDGSKDSCKGDSGGPHATHYRGTWYLTGIVSWGQGCATVGHFGVYTRVSQYIEWLQKLMRSEPRPGVLLRAPFP"}, "B2": {"name": "FVII-PRPSRKRR (protein)", "chain": "ANAFLEELRPGSLERECKEEQCSFEEAREIFKDAERTKLFWISYSDGDQCASSPCQNGGSCKDQLQSYICFCLPAFEGRNCETHKDDQLICVNENGGCEQYCSDHTGTKRSCRCHEGYSLLADGVSCTPTVEYPCGKIPILEKRNASKPQGRPRPSRKRRIVGGKVCPKGECPWQVLLLVNGAQLCGGTLINTIWVVSAAHCFDKIKNWRNLIAVLGEHDLSEHDGDEQSRRVAQVIIPSTYVPGTTNHDIALLRLHQPVVLTDHVVPLCLPERTFSERTLAFVRFSLVSGWGQLLDRGATALELMVLNVPRLMTQDCLQQSRKVGDSPNITEYMFCAGYSDGSKDSCKGDSGGPHATHYRGTWYLTGIVSWGQGCATVGHFGVYTRVSQYIEWLQKLMRSEPRPGVLLRAPFP"}, "B3": {"name": "wild type FVII (human Factor VII) (protein)", "chain": "ANAFLEELRPGSLERECKEEQCSFEEAREIFKDAERTKLFWISYSDGDQCASSPCQNGGSCKDQLQSYICFCLPAFEGRNCETHKDDQLICVNENGGCEQYCSDHTGTKRSCRCHEGYSLLADGVSCTPTVEYPCGKIPILEKRNASKPQGRIVGGKVCPKGECPWQVLLLVNGAQLCGGTLINTIWVVSAAHCFDKIKNWRNLIAVLGEHDLSEHDGDEQSRRVAQVIIPSTYVPGTTNHDIALLRLHQPVVLTDHVVPLCLPERTFSERTLAFVRFSLVSGWGQLLDRGATALELMVLNVPRLMTQDCLQQSRKVGDSPNITEYMFCAGYSDGSKDSCKGDSGGPHATHYRGTWYLTGIVSWGQGCATVGHFGVYTRVSQYIEWLQKLMRSEPRPGVLLRAPFP"}, "B4": {"name": "FVII-RKR (protein)", "chain": "ANAFLEELRPGSLERECKEEQCSFEEAREIFKDAERTKLFWISYSDGDQCASSPCQNGGSCKDQLQSYICFCLPAFEGRNCETHKDDQLICVNENGGCEQYCSDHTGTKRSCRCHEGYSLLADGVSCTPTVEYPCGKIPILEKRNASKPQGRRKRIVGGKVCPKGECPWQVLLLVNGAQLCGGTLINTIWVVSAAHCFDKIKNWRNLIAVLGEHDLSEHDGDEQSRRVAQVIIPSTYVPGTTNHDIALLRLHQPVVLTDHVVPLCLPERTFSERTLAFVRFSLVSGWGQLLDRGATALELMVLNVPRLMTQDCLQQSRKVGDSPNITEYMFCAGYSDGSKDSCKGDSGGPHATHYRGTWYLTGIVSWGQGCATVGHFGVYTRVSQYIEWLQKLMRSEPRPGVLLRAPFP"}},
  "key": {"[1]": {"molecular_target": "FVII-RKR (UniProt P08709)"}, "[2]": {"molecular_target": "FVII-PRPSRKRR (UniProt P08709)"}, "[3]": {"molecular_target": "FVII-RKRRKR (UniProt P08709)"}, "[4]": {"molecular_target": "wild type FVII (human Factor VII) (UniProt P08709)"}, "[5]": {"molecular_target": "soluble Tissue factor"}},
  "data": [
    {"molecule": "Factor Xa", "values": [
      {"measurement": "FXa activation: conversion of single-chain zymogen to two-chain material (reducing gel)", "setting": "[1]", "value": "the single-chain zymogen protein in all but FVII-INS was nearly completely converted to two-chain material"},
      {"measurement": "FXa activation: conversion of single-chain zymogen to two-chain material (reducing gel)", "setting": "[2]", "value": "the single-chain zymogen protein in all but FVII-INS was nearly completely converted to two-chain material"},
      {"measurement": "FXa concentration giving complete cleavage of zymogen", "setting": "[2]", "value": "Addition of 1 µM FXa (i.e 50 fold higher than for the other FVIIa proteins) resulted in complete cleavage of zymogen FVII-INS"},
      {"measurement": "FXa activation: conversion of single-chain zymogen to two-chain material (reducing gel)", "setting": "[3]", "value": "the single-chain zymogen protein in all but FVII-INS was nearly completely converted to two-chain material"},
      {"measurement": "FXa activation: conversion of single-chain zymogen to two-chain material (reducing gel)", "setting": "[4]", "value": "modified FVII, like wild type FVII, is autoactivated by (A) soluble Tissue factor (sTF) and (B) Factor Xa"}
    ]},
    {"molecule": "B1", "values": [
      {"measurement": "autoactivation: cleavage of single-chain zymogen to two-chain FVIIa (reducing gel)", "setting": "[5]", "value": "all modified FVIIa contain single-chain material that can be cleaved"}
    ]},
    {"molecule": "B2", "values": [
      {"measurement": "autoactivation: cleavage of single-chain zymogen to two-chain FVIIa (reducing gel)", "setting": "[5]", "value": "all modified FVIIa contain single-chain material that can be cleaved"}
    ]},
    {"molecule": "B3", "values": [
      {"measurement": "autoactivation: cleavage of single-chain zymogen to two-chain FVIIa (reducing gel)", "setting": "[5]", "value": "single-chain protein (zymogen) in the FVII or the FVIIa preparations was cleaved to yield a two-chain material (FVIIa)"}
    ]},
    {"molecule": "B4", "values": [
      {"measurement": "autoactivation: cleavage of single-chain zymogen to two-chain FVIIa (reducing gel)", "setting": "[5]", "value": "all modified FVIIa contain single-chain material that can be cleaved"}
    ]}
  ]
}
